Assay results reported in patent US20220275077A1.
Like-named read-outs stand apart in the source and are kept apart here.

T1: FERD3L (human) (UniProt Q96RJ6)
T1 sequence (looked up): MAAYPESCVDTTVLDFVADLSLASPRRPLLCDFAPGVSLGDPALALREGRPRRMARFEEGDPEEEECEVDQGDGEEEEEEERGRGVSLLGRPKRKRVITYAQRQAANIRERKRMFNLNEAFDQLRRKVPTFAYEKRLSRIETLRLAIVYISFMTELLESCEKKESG

T2: human Interleukin-38 (IL-38) (human) (UniProt Q8WWZ1)
T2 sequence (looked up): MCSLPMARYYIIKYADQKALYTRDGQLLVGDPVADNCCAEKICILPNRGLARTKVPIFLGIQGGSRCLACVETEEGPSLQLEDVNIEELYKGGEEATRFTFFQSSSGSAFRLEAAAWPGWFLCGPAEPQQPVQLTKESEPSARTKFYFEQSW

T3: IL-33 (human) (UniProt O95760)
T3 sequence (looked up): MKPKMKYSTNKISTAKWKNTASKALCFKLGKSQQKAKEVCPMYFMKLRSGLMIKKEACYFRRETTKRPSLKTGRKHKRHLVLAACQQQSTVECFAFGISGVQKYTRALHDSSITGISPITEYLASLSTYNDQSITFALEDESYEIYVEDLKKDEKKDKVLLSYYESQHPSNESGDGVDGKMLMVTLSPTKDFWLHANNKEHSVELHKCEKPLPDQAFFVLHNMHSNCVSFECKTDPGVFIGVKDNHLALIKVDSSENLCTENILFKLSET

T4: IL-37 (human) (UniProt Q9NZH6)
T4 sequence (looked up): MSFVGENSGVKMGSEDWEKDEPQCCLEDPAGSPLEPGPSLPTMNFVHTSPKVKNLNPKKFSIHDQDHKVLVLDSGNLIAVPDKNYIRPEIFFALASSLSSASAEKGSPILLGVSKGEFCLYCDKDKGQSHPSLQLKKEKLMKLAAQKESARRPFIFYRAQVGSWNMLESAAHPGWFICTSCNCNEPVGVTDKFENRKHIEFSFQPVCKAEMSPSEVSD

T5: IL-36Ra (human) (UniProt Q9UBH0)
T5 sequence (looked up): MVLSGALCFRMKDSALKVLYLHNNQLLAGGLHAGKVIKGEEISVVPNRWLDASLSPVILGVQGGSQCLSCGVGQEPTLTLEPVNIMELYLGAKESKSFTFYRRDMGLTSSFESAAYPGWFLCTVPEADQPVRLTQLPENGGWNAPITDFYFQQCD

T6: IL-36g (human) (UniProt Q9NZH8)
T6 sequence (looked up): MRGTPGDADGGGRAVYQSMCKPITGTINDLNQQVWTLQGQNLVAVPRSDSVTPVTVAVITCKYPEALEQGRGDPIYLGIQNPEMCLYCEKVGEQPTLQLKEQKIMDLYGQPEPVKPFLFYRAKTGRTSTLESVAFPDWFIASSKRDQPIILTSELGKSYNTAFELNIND

T7: IL-36b (human) (UniProt Q9NZH7)
T7 sequence (looked up): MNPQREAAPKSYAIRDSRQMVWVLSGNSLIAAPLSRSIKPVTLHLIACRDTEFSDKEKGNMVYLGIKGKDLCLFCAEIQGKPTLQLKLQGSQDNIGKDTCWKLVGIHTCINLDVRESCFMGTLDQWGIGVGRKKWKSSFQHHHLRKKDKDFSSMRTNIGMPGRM

T8: IL-1α (human) (UniProt P01583)
T8 sequence (looked up): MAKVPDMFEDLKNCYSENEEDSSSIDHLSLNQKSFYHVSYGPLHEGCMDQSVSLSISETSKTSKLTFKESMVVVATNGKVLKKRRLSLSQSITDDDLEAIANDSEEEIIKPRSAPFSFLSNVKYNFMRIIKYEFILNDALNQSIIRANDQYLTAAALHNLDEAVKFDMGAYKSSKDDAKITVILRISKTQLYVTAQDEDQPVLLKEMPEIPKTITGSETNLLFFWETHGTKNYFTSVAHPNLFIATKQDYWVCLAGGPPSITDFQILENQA

T9: IL-36a (human) (UniProt Q9UHA7)
T9 sequence (looked up): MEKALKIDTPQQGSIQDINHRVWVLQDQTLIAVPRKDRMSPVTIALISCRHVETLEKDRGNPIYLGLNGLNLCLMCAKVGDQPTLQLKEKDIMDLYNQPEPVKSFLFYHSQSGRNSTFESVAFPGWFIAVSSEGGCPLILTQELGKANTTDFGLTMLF


How the values were obtained:
FERD3L (human) = target: T1, FERD3L (human); assay: CDI HuProt native protein microarray
[1] = target: T2, human Interleukin-38 (IL-38) (human); assay: CDI HuProt native protein microarray
IL-1Ra (human) = IL-1Ra (human) (UniProt P18510); assay: CDI HuProt native protein microarray
Chain of IL-1Ra (human) (P18510 26-177 limits assumed): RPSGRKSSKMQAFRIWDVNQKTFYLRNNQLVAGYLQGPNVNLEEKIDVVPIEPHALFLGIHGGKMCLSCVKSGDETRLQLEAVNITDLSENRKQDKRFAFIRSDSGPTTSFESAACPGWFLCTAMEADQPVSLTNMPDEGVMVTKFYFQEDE

IL-33 (human) = target: T3, IL-33 (human); assay: CDI HuProt native protein microarray
IL-1β (human) = IL-1β (human) (UniProt P01584); assay: CDI HuProt native protein microarray
Chain of IL-1β (human) (P01584 whole entry): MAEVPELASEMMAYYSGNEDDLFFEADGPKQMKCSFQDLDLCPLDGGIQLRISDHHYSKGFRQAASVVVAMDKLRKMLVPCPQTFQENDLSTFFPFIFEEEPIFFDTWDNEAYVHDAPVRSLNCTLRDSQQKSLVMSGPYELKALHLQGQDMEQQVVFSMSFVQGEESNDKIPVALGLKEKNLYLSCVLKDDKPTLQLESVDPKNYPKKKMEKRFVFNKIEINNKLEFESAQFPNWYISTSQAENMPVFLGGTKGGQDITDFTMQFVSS

IL-37 (human) = target: T4, IL-37 (human); assay: CDI HuProt native protein microarray
IL-36Ra (human) = target: T5, IL-36Ra (human); assay: CDI HuProt native protein microarray
IL-36g (human) = target: T6, IL-36g (human); assay: CDI HuProt native protein microarray
IL-18 (human) = IL-18 (human) (UniProt Q14116); assay: CDI HuProt native protein microarray
Chain of IL-18 (human) (Q14116 whole entry): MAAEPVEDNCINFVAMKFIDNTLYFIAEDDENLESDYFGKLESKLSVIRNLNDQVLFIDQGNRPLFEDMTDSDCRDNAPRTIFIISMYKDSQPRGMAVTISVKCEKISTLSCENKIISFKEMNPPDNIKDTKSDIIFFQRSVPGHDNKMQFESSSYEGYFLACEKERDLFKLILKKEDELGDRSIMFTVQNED

IL-36b (human) = target: T7, IL-36b (human); assay: CDI HuProt native protein microarray
IL-1α (human) = target: T8, IL-1α (human); assay: CDI HuProt native protein microarray
IL-36a (human) = target: T9, IL-36a (human); assay: CDI HuProt native protein microarray
[2] = target: T2, human Interleukin-38 (IL-38) (human); assay: CDI HuProt native protein microarray; remark: listed apart in the source
[3] = target: T2, human Interleukin-38 (IL-38) (human); assay: BLI (Octet QKe), antibody on anti-mouse Fc biosensor, soluble IL-38, 1:1 model
Hnmph1 = assay: CDI HuProt native protein microarray

Binder	F635 (FERD3L (human))	Z-score (FERD3L (human))	s-score (FERD3L (human))	F635 [1]	s-score [1]	Z-score (IL-1Ra (human))	Z-score (IL-33 (human))	Z-score (IL-1β (human))	Z-score (IL-37 (human))	Z-score (IL-36Ra (human))	Z-score (IL-36g (human))	Z-score (IL-18 (human))	Z-score (IL-36b (human))	Z-score (IL-1α (human))	Z-score (IL-36a (human))	Z-score [2]	other results
CD1-M8 (antibody, from a related filing, V domains shown) VH: EVQLQQSGPELVKPGASVKMSCKASGYTFTDYYIHWVKQSHGKGLEWIGYIFPNNGGNGYSQKFKGKATMTVDKSSSTAYMELRSLTSEDSAVYYCARGGYDAGFVYWGQGTLVTVSA VL: DIVMSQSPSSLAVSAGEKVTMSCKSSQSLFNSGARKNFLAWYQQKPGQSPKLLIYWASTRESGVPDRFTGSGSGTDFTLTISSVQAEDLAVYYCKQSYYLITFGAGTKLELK	16300	50.9	40.8	45600	91.5	0.003	-0.014	-0.017	-0.016	-0.019	-0.008	-0.016	-0.01	-0.014	0.012	142	–
CD1-M3 (antibody, from a related filing, V domains shown) VH: EVQLQQSGPELVKPGASVKIPCKASGYTFTDYNMDWVKQSHGKSLEWIGDINPNNGGTIYNQKFKGKATLTVDKSSSTAYMELRSLTSEDTAVYYCSRPYYGYFAYWGQGTLVTVSA VL: DVVMTQSPLSLPVSLGDQASISCRSSQSLVHSHENTFLHWYLQKPGQSPKLLIYRVSNRFSGVPDRFSGSGSGTDFTLKISRVEAEDLGVYFCSQSTHVPLTFGAGTKLELK	19100	49.2	26.2	54000	90.3	-0.013	-0.02	-0.016	-0.013	-0.017	-0.017	-0.016	-0.016	-0.013	-0.008	140	Kd [3]: 0.721 nM; F635 (Hnmph1): 4130; Z-score (Hnmph1): 10.6; s-score (Hnmph1): 5; Z-score [1]: 140
